Measured values reported in patent US8008452B2, “Phosphorylated Ndr kinase” (Novartis Forschungesstiftung, Zweigniederlassung Friedrich …, priority 2002, dated 2011).

Experiments:
[1] = system: GST-NDR1; assay: GST-NDR1 in vitro autophosphorylation, incorporated 32P by Cerenkov counting; assay type: biochemical, human
Experimental: BL21-DE3-pRep4 E. coli strain was transformed with the pGEX-2T_NDR1 wild type or mutant plasmids. BL21-DE3 is a protease-deficient E. coli strain and pRep4 is a Laclq repressor-bearing plasmid both available commercially. Optionally, if desired, an E. coli strain comprising GroESL can be used, which expresses a chaperone protein that stabilizes the kinase. Mid-logarithmic phase cells were induced with 0.5 mM isopropyl beta-D-thiogalactopyranoside (IPTG) for 4 hours at 30° C. Bacteria were lysed using a French press in the presence of 1 mg/ml lysosyme, and the fusion proteins were purified on glutathione-agarose (Amersham Pharmacia Biotech) as described by the manufacturers. Recombinant proteins were assayed for kinase activity as described below and autophosphorylation was determined after SDS-PAGE separation either by Cerenkov counting or by exposure to a PhosphorImager screen followed by analysis with ImageQuant software (Molecular Dynamics).
In brief, 1 microgram of purified GST-NDR1 (in solution ˜0.5 microM) wild type, kinase dead (K118A), and alanine mutants of phosphorylation residues Thr74, Ser281, and Thr444 were autophosphorylated for 2 hours in vitro without further additions or in the presence of 1 mM CaCl2 and 10 microM bovine S100B. Proteins were visualized on SDS gels using Coomassie Blue R-350 stained SDS-PAGE gel, and [gamma-^32P]ATP-labelled proteins were visualized by autoradiography of the gels developed on a Phosphorimager screen. The amount of incorporated ^32P was quantified by Cerenkov counting.

[2] = system: HA-NDR1; assay: HA-NDR1 kinase assay on 12CA5 immunoprecipitates from transfected, treated COS-1 cells; assay type: cell-based, human; settings: COS-1 cells
Experimental: In some experiments, the cells were treated for 60 min with 1 microM okadaic acid in 0.1% N,N-dimethylformamide (DMF) (Alexis Corp.), 50 microM BAPTA-AM (1,2-bis (o-aminophenoxy) ethane-N,N,N′,N′-tetraacetic acid tetra (acetoxy-methyl)ester) in 0.1% diimethylsulfoxide (DMSO; Sigma), or 20 microM thapsigargin in 0.1% DMSO (Alomone) 24 hours after transfection.
Transfected and treated COS-1 cells were washed once with ice-cold PBS, and harvested by rubber policeman in 1 ml ice-cold PBS containing 1 mM Na3VO4 and 20 mM beta-glycerophosphate before lysis in 500 microliters of IP buffer (20 mM Tris-HCl pH 8.0, 150 mM NaCl, 1% Nonidet P-40, 10% glycerol, 1 mM Na3VO4, 20 mM beta-glycerolphosphate, 1 microM microcystin-LR, 50 mM NaF, 0.5 mM PMSF, 4 microM leupeptin, 1 mM benzamidine, and 1 tablet/10 ml IP of Complete protease inhibitors (Roche)). Lysates were centrifuged at 20 000 g for 20 min and triplicate aliquots (200 microg) of supernatant were precleared with protein A-Sepharose (Amersham Pharmacia Biotech) for 60 min and mixed subsequently for 3 h at 4° C. with 12CA5 antibody prebound to protein A-Sepharose (˜1 microg antibody bound to 2 microl beads). The beads were then washed twice with IP buffer, once for 10 min with IP buffer containing 1 M NaCl, once again for 10 min with IP buffer, and finally twice with 20 mM Tris-HCl pH 7.5 containing 4 microM leupeptin and 1 mM benzamidine. […] After 60 min incubation at 30° C., 15 microliters of supernatant were removed, and phosphate incorporation into the substrate peptide determined as described for GST-NDR1 above. […]
To test whether hMOB1 plays a role in NDR activation, myc-hMOB1 or the empty vector was cotransfected with HA-NDR1 in COS1 cells and treated with OA. […] The reactions were resolved on a 10% SDS PAGE and the radioactivity visualised by using a phosphoimager.

[3] = system: myc-hMOB1; assay: Co-immunoprecipitation of HA-NDR and myc-hMOB1 from COS-1 cells; assay type: binding, human; settings: COS-1 cells treated with OA prior to lysis
Experimental: HA-tagged hNDR and myc-tagged hMOB1 were cotransfected in COS1 cells, which were stimulated with okadaic acid or solvent alone. After cell lysis and extract preparation, HA-NDR was immunoprecipitated and co-immunoprecipitated myc-hMOB1 detected or Myc-hMOB1 was immunoprecipitated and co-immunoprecipitated HA-NDR detected.
HA-NDR, wt and mutants, and myc-hMOB1 were cotransfected into COS-1 cells and the cells were treated with OA prior to lysis. HA-NDR was immunoprecipitated and the coimmunoprecipitated myc-hMOB1 detected. […] Furthermore, the two important in vivo phosphorylation sites of NDR, serine-281 in the activation segment and the hydrophobic motif site threonine-444 in the C-terminal regulatory domain were tested, as well as the threonine 74 site in the N-terminal regulatory domain, for their role in NDR-MOB interaction.
HA-NDR N-terminal point mutants and myc-mob1 were co-transfected into COS1 cells which were treated with OA prior to lysis. HA-NDR mutants were immunoprecipitated and coimmunoprecipitated myc-hMOB1 detected.
In this Example, the effect of treatment of COS1 cells with BAPTA-AM on the NDR-MOB Interaction was determined. […] HA-NDR was immunoprecipitated and co-immunoprecipitated myc-MOB1 detected. The kinase activity of the HA-NDR immunoprecipitates was measured in a peptide kinase assay.

B1: S281A: NDR1 alanine mutant of phosphorylation residue Ser281; GST fusion or HA-tagged (protein)
chain: MAMTGSTPCSSMSNHTKERVTMTKVTLENFYSNLIAQHEEREMRQKKLEKVMEEEGLKDEEKRLRRSAHARKETEFLRLKRTRLGLEDFESLKVIGRGAFGEVRLVQKKDTGHVYAMKILRKADMLEKEQVGHIRAERDILVEADSLWVVKMFYSFQDKLNLYLIMEFLPGGDMMTLLMKKDTLTEEETQFYIAETVLAIDSIHQLGFIHRDIKPDNLLLDSKGHVKLSDFGLCTGLKKAHRTEFYRNLNHSLPSDFTFQNMNSKRKAETWKRNRRQLAFATVGTPDYIAPEVFMQTGYNKLCDWWSLGVIMYEMLIGYPPFCSETPQETYKKVMNWKETLTFPPEVPISEKAKDLILRFCCEWEHRIGAPGVEEIKSNSFFEGVDWEHIRERPAAISIEIKSIDDTSNFDEFPESDILKPTVATSNHPETDYKNKDWVFINYTYKRFEGLTARGAIPSYMKAAK
modifications: left off: small tags and cut ends
notes: NDR1 alanine mutant of phosphorylation residue Ser281; GST fusion or HA-tagged
- amount of incorporated 32P (autophosphorylation), −S100B ([1]; GST-NDR1 variant, 1 microgram, autophosphorylated 2 hours without further additions, pmol ATP/pmol GST-NDR1): 0.0192
- amount of incorporated 32P (autophosphorylation), +S100B ([1]; GST-NDR1 variant, 2 hours in the presence of 1 mM CaCl2 and 10 microM bovine S100B, in pmol ATP/pmol GST-NDR1): 0.028
- autophosphorylation rate of GST-NDR1 mutant (in words) ([1]; compared with wild type): dramatically reduced autophosphorylation rate
- kinase activity of HA-NDR1 variants, +OA ([2]; 1 microM okadaic acid 1 h): 0.1113
- kinase activity of HA-NDR1 variants, −OA ([2]; solvent alone 1 h): 0.0357
- interaction of HA-NDR variant with myc-hMOB1 [3]: still interact with MOB1
